Where two headings read alike, the source gives them in different places.
Tests used:
[1] = target: SARS-CoV-2 spike protein (SARS-CoV-2) (UniProt P0DTC2)
[2] = target: SARS-CoV-2 spike protein (SARS-CoV-2) (UniProt P0DTC2); remark: listed apart in the source
[3] = target: full-length recombinant MrkA protein with an N-terminal 6xHis-SUMO-tag (MyBiosource, MBS1248970) (Klebsiella pneumoniae) (UniProt P12267); test: sandwich ELISA 3, PCC immobilised, MrkA 50 nM; reference cy(LLFFF)
[4] = target: full-length recombinant MrkA protein with an N-terminal 6xHis-SUMO-tag (MyBiosource, MBS1248970) (Klebsiella pneumoniae) (UniProt P12267); test: sandwich ELISA 2, PCC immobilised, MrkA 25 nM; reference cy(LLFFF)
[5] = target: full-length recombinant MrkA protein with an N-terminal 6xHis-SUMO-tag (MyBiosource, MBS1248970) (Klebsiella pneumoniae) (UniProt P12267); test: sandwich ELISA 6, PCC immobilised, MrkA 25 nM; reference cy(LLFFF)
[6] = target: full-length recombinant MrkA protein with an N-terminal 6xHis-SUMO-tag (MyBiosource, MBS1248970) (Klebsiella pneumoniae) (UniProt P12267); test: sandwich ELISA 5, PCC immobilised, MrkA 25 nM; reference cy(LLFFF)
[7] = target: full-length recombinant MrkA protein with an N-terminal 6xHis-SUMO-tag (MyBiosource, MBS1248970) (Klebsiella pneumoniae) (UniProt P12267); test: ELISA, PCC immobilised, full-length recombinant MrkA
[8] = target: full-length recombinant MrkA protein with an N-terminal 6xHis-SUMO-tag (MyBiosource, MBS1248970) (Klebsiella pneumoniae) (UniProt P12267); test: sandwich ELISA 5, PCC immobilised, MrkA 25 nM; the reference itself
[9] = target: full-length recombinant MrkA protein with an N-terminal 6xHis-SUMO-tag (MyBiosource, MBS1248970) (Klebsiella pneumoniae) (UniProt P12267); test: sandwich ELISA 3, PCC immobilised, MrkA 50 nM; the reference itself
[10] = target: full-length recombinant MrkA protein with an N-terminal 6xHis-SUMO-tag (MyBiosource, MBS1248970) (Klebsiella pneumoniae) (UniProt P12267); test: sandwich ELISA 4, PCC immobilised, MrkA 100 nM; the reference itself
[11] = target: full-length recombinant MrkA protein with an N-terminal 6xHis-SUMO-tag (MyBiosource, MBS1248970) (Klebsiella pneumoniae) (UniProt P12267); test: sandwich ELISA 6, PCC immobilised, MrkA 25 nM; the reference itself
[12] = target: full-length recombinant MrkA protein with an N-terminal 6xHis-SUMO-tag (MyBiosource, MBS1248970) (Klebsiella pneumoniae) (UniProt P12267); test: sandwich ELISA 2, PCC immobilised, MrkA 25 nM; the reference itself
[13] = target: full-length recombinant MrkA protein with an N-terminal 6xHis-SUMO-tag (MyBiosource, MBS1248970) (Klebsiella pneumoniae) (UniProt P12267); test: sandwich ELISA, biotinylated PCC immobilised, His-SUMO-MrkA titrated (FIG. 3A)
[14] = target: full-length recombinant MrkA protein with an N-terminal 6xHis-SUMO-tag (MyBiosource, MBS1248970) (Klebsiella pneumoniae) (UniProt P12267); test: sandwich ELISA 1, PCC immobilised, [MrkA] N/A; the reference itself
[15] = target: full-length recombinant MrkA protein with an N-terminal 6xHis-SUMO-tag (MyBiosource, MBS1248970) (Klebsiella pneumoniae) (UniProt P12267); test: sandwich ELISA 4, PCC immobilised, MrkA 100 nM; reference cy(LLFFF)

## G1Gld (peptide)
[1]
  EC50: 4.2 nM

## GGarn (peptide)
[1]
  EC50: 3.4 nM

## aakrG (peptide)
[2]
  EC50: 16.4 nM

## andkd (peptide)
[1]
  EC50: 4.2 nM

## avtr (peptide)
[2]
  EC50: 3.4 nM

## cy(AAFFF) (peptide)
[3]
  Relative affinity (ratio of ELISA signal to cy(LLFFF)): 0.15

## cy(ALFFF) (peptide)
[4]
  Relative affinity (ratio of ELISA signal to cy(LLFFF)): 0.53

## cy(DLFFF) (peptide)
[5]
  Relative affinity (ratio of ELISA signal to cy(LLFFF)): 0.21

## cy(HLFFF) (peptide)
[5]
  Relative affinity (ratio of ELISA signal to cy(LLFFF)): 0.81

## cy(LAFFF) (peptide)
[4]
  Relative affinity (ratio of ELISA signal to cy(LLFFF)): 0.26

## cy(LLAFF) (peptide)
[4]
  Relative affinity (ratio of ELISA signal to cy(LLFFF)): 0.59

## cy(LLFAF) (peptide)
[4]
  Relative affinity (ratio of ELISA signal to cy(LLFFF)): 0.1

## cy(LLFFA) (peptide)
[4]
  Relative affinity (ratio of ELISA signal to cy(LLFFF)): 0.04

## cy(LLFFF)+R3 (peptide)
[6]
  Relative affinity (ratio of ELISA signal to cy(LLFFF)): 0.9

## cy(LLFFF)+R6 (peptide)
[6]
  Relative affinity (ratio of ELISA signal to cy(LLFFF)): 1.22

## cy(LLFFF)+R9 (peptide)
[6]
  Relative affinity (ratio of ELISA signal to cy(LLFFF)): 0.58

## cy(LLFFF), biotinylated (peptide)
[7]
  EC50: 230 nM
[8]
  Relative affinity (ratio of ELISA signal to cy(LLFFF)): 1
[9]
  Relative affinity (ratio of ELISA signal to cy(LLFFF)): 1
[10]
  Relative affinity (ratio of ELISA signal to cy(LLFFF)): 1
[11]
  Relative affinity (ratio of ELISA signal to cy(LLFFF)): 1
[12]
  Relative affinity (ratio of ELISA signal to cy(LLFFF)): 1
[13]
  EC50: 50 nM
[14]
  Relative affinity (ratio of ELISA signal to cy(LLFFF)): 1

## cy(TTFFF) (peptide)
[15]
  Relative affinity (ratio of ELISA signal to cy(LLFFF)): 0.04

## dpvtd (peptide)
[1]
  EC50: 4.1 nM

## dyGvd (peptide)
[2]
  EC50: 2.9 nM

## dynGp (peptide)
[2]
  EC50: 2.9 nM

## edlvk (peptide)
[2]
  EC50: 4.3 nM

## eprnn (peptide)
[2]
  EC50: 11 nM

## fdtta (peptide)
[2]
  EC50: 3.2 nM

## nkvyG (peptide)
[2]
  EC50: 4.4 nM

## nnpdh (peptide)
[1]
  EC50: 3.8 nM

## sdyre (peptide)
[1]
  EC50: 4.2 nM

## senfd (peptide)
[2]
  EC50: 3.8 nM

## skdfd (peptide)
[2]
  EC50: 3.2 nM

## skevd (peptide)
[2]
  EC50: 4.6 nM

## tGarn (peptide)
[1]
  EC50: 3.1 nM

## tsthG (peptide)
[2]
  EC50: 3.6 nM

## ydrsd (peptide)
[1]
  EC50: 4.2 nM

## ykdld (peptide)
[2]
  EC50: 4 nM

From US20210380640A1
